Results: publication PMC12422189, “Molecular exaptation by the integrin αI domain” (Science Advances, 2025)
One block for each molecule: values may come before it.

Key:
[1] = target: integrin αLβ2 with the αL internal ligand IEGT replaced by VDGT (UniProt P20701); assay: flow cytometry on cells; HEK293T cells transfected with αL variants and β2; 20 mM tris-HCl pH 7.4, 150 mM NaCl, 1 mM MgCl2 + 1 mM MnCl2; purified His-tagged ICAM-1 ectodomain at 20 μg/ml, 1 hour at 37°C; read with iFluor 647 anti-His tag antibody; percent positive cells normalized to wild type
[2] = target: T1, Fc-tagged E-cadherin ectodomain (UniProt P12830 155-698); assay: BLI; Octet RED, 25°C; Fc-tagged E-cadherin ectodomain loaded on Protein A biosensors; αEβ7 in solution, two-fold series 500 to 16.125 nM; activating buffer with 0.1% BSA and 0.02% Tween 20; 1:1 model, global fit of three replicates; details: both partners purified
T1 construct: Fc tag amplified from Addgene plasmid 145164; E-cadherin insert a gift from B. Gumbiner; Captured on Protein A biosensors by the Fc; also called Human Fc-tagged E-cadherin ectodomain; source: ExpiCHO, secreted, purified (HiTrap Protein G, Superdex 200); not shown: Fc (human), C-terminal, kept
T1 sequence (looked up): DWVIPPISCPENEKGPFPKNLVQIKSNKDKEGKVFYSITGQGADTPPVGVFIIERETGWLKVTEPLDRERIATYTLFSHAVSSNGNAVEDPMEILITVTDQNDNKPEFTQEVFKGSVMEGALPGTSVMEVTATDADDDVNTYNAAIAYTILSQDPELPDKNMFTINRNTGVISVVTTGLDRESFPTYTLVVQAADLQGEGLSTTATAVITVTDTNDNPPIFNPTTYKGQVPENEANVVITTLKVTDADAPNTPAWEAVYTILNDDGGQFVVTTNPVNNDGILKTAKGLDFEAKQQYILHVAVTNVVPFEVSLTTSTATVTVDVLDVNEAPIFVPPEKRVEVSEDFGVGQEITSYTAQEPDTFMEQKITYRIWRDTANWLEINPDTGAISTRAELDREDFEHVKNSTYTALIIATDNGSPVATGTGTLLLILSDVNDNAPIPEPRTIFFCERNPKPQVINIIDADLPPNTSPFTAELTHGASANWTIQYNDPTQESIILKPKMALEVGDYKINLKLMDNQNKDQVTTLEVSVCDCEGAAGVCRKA

Sequence of integrin αLβ2 with the αL internal ligand IEGT replaced by VDGT (P20701 26-1170, chain 1 of 2): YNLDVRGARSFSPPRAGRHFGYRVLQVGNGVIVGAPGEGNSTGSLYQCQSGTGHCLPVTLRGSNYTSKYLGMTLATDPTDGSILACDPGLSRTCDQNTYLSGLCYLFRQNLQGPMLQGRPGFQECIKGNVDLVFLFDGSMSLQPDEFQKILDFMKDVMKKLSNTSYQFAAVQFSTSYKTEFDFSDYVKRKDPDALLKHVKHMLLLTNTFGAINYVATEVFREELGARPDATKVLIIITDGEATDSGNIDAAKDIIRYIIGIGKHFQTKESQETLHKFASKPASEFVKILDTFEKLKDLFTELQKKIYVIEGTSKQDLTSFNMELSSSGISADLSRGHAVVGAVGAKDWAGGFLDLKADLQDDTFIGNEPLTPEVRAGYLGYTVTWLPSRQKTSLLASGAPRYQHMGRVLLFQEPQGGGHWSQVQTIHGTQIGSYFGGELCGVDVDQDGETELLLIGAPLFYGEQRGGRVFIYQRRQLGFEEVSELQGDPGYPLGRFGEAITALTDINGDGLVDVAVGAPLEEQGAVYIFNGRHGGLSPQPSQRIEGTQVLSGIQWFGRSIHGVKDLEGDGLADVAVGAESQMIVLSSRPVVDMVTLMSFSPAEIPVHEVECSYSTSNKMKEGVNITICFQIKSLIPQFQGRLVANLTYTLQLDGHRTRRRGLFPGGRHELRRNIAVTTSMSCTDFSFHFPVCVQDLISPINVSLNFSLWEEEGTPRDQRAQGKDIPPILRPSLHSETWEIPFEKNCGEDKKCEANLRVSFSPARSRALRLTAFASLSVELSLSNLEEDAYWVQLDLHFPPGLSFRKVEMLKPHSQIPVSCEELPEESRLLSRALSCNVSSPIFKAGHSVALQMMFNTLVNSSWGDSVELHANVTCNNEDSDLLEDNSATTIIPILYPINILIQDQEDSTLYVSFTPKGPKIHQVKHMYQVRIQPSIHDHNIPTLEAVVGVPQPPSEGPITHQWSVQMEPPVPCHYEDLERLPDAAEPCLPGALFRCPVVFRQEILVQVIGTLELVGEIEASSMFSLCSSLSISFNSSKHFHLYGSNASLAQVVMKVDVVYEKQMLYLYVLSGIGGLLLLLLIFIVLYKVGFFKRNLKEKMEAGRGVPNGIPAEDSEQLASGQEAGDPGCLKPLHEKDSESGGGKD
Sequence of integrin αLβ2 with the αL internal ligand IEGT replaced by VDGT (P05107 23-769, chain 2 of 2, further chain): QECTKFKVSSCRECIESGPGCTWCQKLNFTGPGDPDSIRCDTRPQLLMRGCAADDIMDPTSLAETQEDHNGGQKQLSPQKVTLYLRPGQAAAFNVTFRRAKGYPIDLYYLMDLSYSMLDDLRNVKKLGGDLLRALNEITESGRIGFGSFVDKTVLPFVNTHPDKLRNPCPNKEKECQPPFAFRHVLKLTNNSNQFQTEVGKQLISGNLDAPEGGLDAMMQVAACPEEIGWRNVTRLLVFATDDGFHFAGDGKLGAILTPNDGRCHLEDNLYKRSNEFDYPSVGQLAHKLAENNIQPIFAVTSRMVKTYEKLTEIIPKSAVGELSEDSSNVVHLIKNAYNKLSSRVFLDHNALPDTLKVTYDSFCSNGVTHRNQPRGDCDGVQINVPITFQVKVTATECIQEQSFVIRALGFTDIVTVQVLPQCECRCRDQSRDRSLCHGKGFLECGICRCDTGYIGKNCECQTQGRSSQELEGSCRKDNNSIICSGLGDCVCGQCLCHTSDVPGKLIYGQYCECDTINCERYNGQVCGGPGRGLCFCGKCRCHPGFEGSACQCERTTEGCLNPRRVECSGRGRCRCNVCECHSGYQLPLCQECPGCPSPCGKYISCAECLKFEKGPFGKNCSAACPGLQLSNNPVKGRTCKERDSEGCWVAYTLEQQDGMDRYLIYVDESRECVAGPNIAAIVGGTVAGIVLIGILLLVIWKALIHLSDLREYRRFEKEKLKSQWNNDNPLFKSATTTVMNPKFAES

ligand binding, percent of wild type [1]: 60%
Molecule: intercellular adhesion molecule-1 (ICAM-1) ectodomain, His-tagged (from UniProt P05362 28-480) (ligand)

Kd [2]: 51 ± 7.9 nM
B1: integrin αEβ7 (as used for biolayer interferometry) (complex)
chain 1: FNVDVARPWLTPKGGAPFVLSSLLHQDPSTNQTWLLVTSPRTKRTPGPLHRCSLVQDEILCHPVEHVPIPKGRHRGVTVVRSHHGVLICIQVLVRRPHSLSSELTGTCSLLGPDLRPQAQANFFDLENLLDPDARVDTGDCYSNKEGGGEDDVNTARQRRALEKEEEEDKEEEEDEEEEEAGTEIAIILDGSGSIDPPDFQRAKDFISNMMRNFYEKCFECNFALVQYGGVIQTEFDLRDSQDVMASLARVQNITQVGSVTKTASAMQHVLDSIFTSSHGSRRKASKVMVVLTDGGIFEDPLNLTTVINSPKMQGVERFAIGVGEEFKSARTARELNLIASDPDETHAFKVTNYMALDGLLSKLRYNIISMEGTVGDALHYQLAQIGFSAQILDERQVLLGAVGAFDWSGGALLYDTRSRRGRFLNQTAAAAADAEAAQYSYLGYAVAVLHKTCSLSYIAGAPRYKHHGAVFELQKEGREASFLPVLEGEQMGSYFGSELCPVDIDMDGSTDFLLVAAPFYHVHGEEGRVYVYRLSEQDGSFSLARILSGHPGFTNARFGFAMAAMGDLSQDKLTDVAIGAPLEGFGADDGASFGSVYIYNGHWDGLSASPSQRIRASTVAPGLQYFGMSMAGGFDISGDGLADITVGTLGQAVVFRSRPVVRLKVSMAFTPSALPIGFNGVVNVRLCFEISSVTTASESGLREALLNFTLDVDVGKQRRRLQCSDVRSCLGCLREWSSGSQLCEDLLLMPTEGELCEEDCFSNASVKVSYQLQTPEGQTDHPQPILDRYTEPFAIFQLPYEKACKNKLFCVAELQLATTVSQQELVVGLTKELTLNINLTNSGEDSYMTSMALNYPRNLQLKRMQKPPSPNIQCDDPQPVASVLIMNCRIGHPVLKRSSAHVSVVWQLEENAFPNRTADITVTVTNSNERRSLANETHTLQFRHGFVAVLSKPSIMYVNTGQGLSHHKEFLFHVHGENLFGAEYQLQICVPTKLRGLQVVAVKKLTRTQASTVCTWSQERACAYSSVQHVEEWHSVSCVIASDKENVTVAAEISWDHSEELLKDVTELQILGEISFNKSLYEGLNAENHRTKITVVFLKDEKYH
chain 2: ELDAKIPSTGDATEWRNPHLSMLGSCQPAPSCQKCILSHPSCAWCKQLNFTASGEAEARRCARREELLARGCPLEELEEPRGQQEVLQDQPLSQGARGEGATQLAPQRVRVTLRPGEPQQLQVRFLRAEGYPVDLYYLMDLSYSMKDDLERVRQLGHALLVRLQEVTHSVRIGFGSFVDKTVLPFVSTVPSKLRHPCPTRLERCQSPFSFHHVLSLTGDAQAFEREVGRQSVSGNLDSPEGGFDAILQAALCQEQIGWRNVSRLLVFTSDDTFHTAGDGKLGGIFMPSDGHCHLDSNGLYSRSTEFDYPSVGQVAQALSAANIQPIFAVTSAALPVYQELSKLIPKSAVGELSEDSSNVVQLIMDAYNSLSSTVTLEHSSLPPGVHISYESQCEGPEKREGKAEDRGQCNHVRINQTVTFWVSLQATHCLPEPHLLRLRALGFSEELIVELHTLCDCNCSDTQPQAPHCSDGQGHLQCGVCSCAPGRLGRLCECSVAELSSPDLESGCRAPNGTGPLCSGKGHCQCGRCSCSGQSSGHLCECDDASCERHEGILCGGFGRCQCGVCHCHANRTGRACECSGDMDSCISPEGGLCSGHGRCKCNRCQCLDGYYGALCDQCPGCKTPCERHRDCAECGAFRTGPLATNCSTACAHTNVTLALAPILDDGWCKERTLDNQLFFFLVEDDARGTVVLRVRPQEKGADH
modifications: Wild-type αE taken for BLI: the paper assigns wild-type to the E-cadherin complex and RRtoGG (R177G/R178G) only to the Fab complex; the BLI section does not state which was used. Signal peptides …
